B1: BKM0138 (antibody, V domains shown)
VH: EIQLLESGGGLVQPGGSLRLSCAVSGFSITTTGYHWNWVRQAPGKGLEWVGYIYSSGSTSYNPSLKSRFTISRDTSKNTFYLQMNSLRAEDTAVYYCARGDWHYFDYWGQGTMVTVSS
VL: DSVTTQSPLSLPVTLGQPASISCSGEKLSDKYVHWYQQRPGQSPRMLIYENDRRPSGVPDRFSGSNSGNDATLKISRVEAEDVGVYFCQFWDSTASAVFGGGTKVEIK
notes: also called BJM0411 VL-N95A
B2: BKM0140 (antibody, V domains shown)
VH: B1 VH
VL: SSETTQPPSVSVSPGQTASITCSGEKLSDKYVHWYQQKPGQSPVMVIYENDRRPSGIPERFSGSNSGNTATLTISGTQAMDEADYFCQFWASTNSAVFGGGTQLTVL
notes: also called BJM0407 VL-D92A
B3: BKM0139 (antibody, V domains shown)
VH: B1 VH
VL: B1 VL with D92A, A95N
notes: also called BJM0411 VL-D92A
B4: BKM0142 (antibody, V domains shown)
VH: B1 VH with N62A
VL: B1 VL with A95N
notes: also called BJM0411 VH-N60A
B5: BKM0145 (antibody, V domains shown)
VH: B1 VH with N62A
VL: B2 VL with N94A
notes: also called BJM0407 VH-N60A-VL-D92A-N95A
B6: BKM0143 (antibody, V domains shown)
VH: B1 VH with N62A
VL: B2 VL with A91D
notes: also called BJM0407 VH-N60A
B7: BKM0141 (antibody, V domains shown)
VH: B1 VH
VL: B2 VL with A91D, N94A
notes: also called BJM0407 VL-N95A
B8: BKM0144 (antibody, V domains shown)
VH: B1 VH with N62A
VL: B1 VL with D92A
notes: also called BJM0411 VH-N60A-VL-D92A-N95A

Substitutions are numbered along the chain they refer to. Names and notes keep the numbering of the source.

The assay has as its target T1, Human NKp30 (BKM0179) (human, UniProt O14931 19-135, limits assumed).
T1 sequence (looked up): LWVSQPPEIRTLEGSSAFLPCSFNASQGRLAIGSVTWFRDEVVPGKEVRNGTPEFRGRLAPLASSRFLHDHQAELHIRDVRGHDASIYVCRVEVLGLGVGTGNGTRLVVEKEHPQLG
Nature of the assay: SPR (BIAcore T200); human NKp30 BKM0179 captured on a CM5 chip via anti-mouse Fc, antibody construct injected at 3.9-125 nM; 1:1 model. Background: In SPR one partner is held on a chip, and binding of the other changes the refractive index at the surface.
Protocol: In this example, a series of exemplary anti-NKp30 antibody molecules were analyzed for their binding affinity for NKp30. Briefly, surface plasmon resonance (SPR) measurements were performed by using the BIAcore T200. Human NKp30 (BKM0179) was immobilized on a CM5 chip via anti-mouse Fc antibody to a response of 50 RU. […] The data was fit using a 1:1 binding model.
With B1, the Kd (in general, the constant that tells how readily two partners part at equilibrium) was determined as 3.2 nM.
Molecule B2 returned a Kd of 3.3 nM.
The value for B3 was 3.2 nM; that for B4 was 1.28 nM.
The same measure for B5: 4.2 nM.
The same measure for B6: 1.45 nM; for B7: 3 nM; for B8: 6.4 nM.

Values taken from patent US20230333112A1 (MARENGO THERAPEUTICS, published 2023).
